# Test results as given in patent US20020061531, “Detection of binding factors with fluorescence polarization” (published 2002).
# Like-named read-outs stand apart in the source and are kept apart here.
# B1: RT 12 aptamer (ssDNA)
# DNA: ATCTACTGGATTAGCGATACTCGATTAGGTCCCCTGCCGCTAAACCATACCGCGGTAACTTGAGCAAAATCACCACTGCAGGGG
# B2: trp operator 25 bp (dsDNA)
# DNA 1: ATCGAACTAGTTAACTAGTACGCAA
# DNA 2: TTGCGTACTAGTTAACTAGTTCGAT
# B3: RT 26 aptamer (ssDNA)
# DNA: ATCCGCCTGATTAGCGATACTTACGTGAGCGTGCTGTCCCCTAAAGGTGATACGTCACTTGAGCAAAATCACCTGCAGGGG
# What was measured:
# [1] = biological target: T1, HIV-1 reverse transcriptase (p66/p51) (Human immunodeficiency virus 1, UniProt P04585;P04585 P04585:588-1147,P04585:588-1027); test: CE/LIF; two complex peaks; lower binding constant than RT 26; 1xTBE; conditions: tags: Worthington Biochemicals; chain copies: heterodimer (stated)
# [2] = biological target: SSB protein, FITC-labeled (UniProt P0AGE0 P0AGE0:2-178); test: CE mobility shift of FITC-SSB, anisotropy change only ~0.02; pH 9.1; conditions: tags: FITC (5.3 dye per protein), Sigma; chain copies: tetramer (stated)
# trp repressor = trp repressor (Escherichia coli, UniProt P0A881 P0A881:2-108); test: FP; CE/LIFP polarization 0.11 free to 0.25 with repressor; trp binding buffer pH 7.6
# [3] = biological target: MMLV reverse transcriptase (Moloney murine leukemia virus, UniProt P03355 P03355:660-1330)
# [4] = biological target: T1, HIV-1 reverse transcriptase (p66/p51)
# SSB protein [5] = biological target: T2, SSB protein (UniProt P0AGE0 P0AGE0:2-178); test: CE mobility; 25 mM Na2B4O7 pH 9.1, SSB in running buffer; Hill fit; conditions: tags: Sigma; unlabeled; chain copies: tetramer (stated); label: fluorescein
# SSB protein [6] = biological target: T2, SSB protein; test: FP; CE/LIFP anisotropy 0.05 to 0.25; 25 mM Na2B4O7 pH 9.1; conditions: tags: Sigma; unlabeled; chain copies: tetramer (stated); label: fluorescein
# SSB protein [7] = biological target: T2, SSB protein; test: FP; 1:1 complex; mobility and anisotropy gave similar values; 2:1 complex also seen; A=0.23; conditions: tags: Sigma; unlabeled; chain copies: tetramer (stated); label: fluorescein
# T2 sequence (P0AGE0 2-178, one chain of several): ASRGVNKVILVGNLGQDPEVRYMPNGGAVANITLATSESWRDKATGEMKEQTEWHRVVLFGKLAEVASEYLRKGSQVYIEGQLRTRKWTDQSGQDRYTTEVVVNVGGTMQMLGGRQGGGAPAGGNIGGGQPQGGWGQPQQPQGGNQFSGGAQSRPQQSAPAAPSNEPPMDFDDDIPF
# Chain of SSB protein, FITC-labeled (P0AGE0 2-178, one chain of several): as above
binder,measurement,setting,value
B1,binding result,[1],binds
TTTTTTTTTTTTTTTTTT (ssDNA) [d(pT)18],binding result,[2],binds
B2,binding result,trp repressor,binds
B3,binding result,[3],no binding
same,binding result,[4],binds
CGCGATACGCC (ssDNA) [F-11-mer],Ka,SSB protein [5],~4.4e+06 M⁻¹
same,Ka,SSB protein [6],~5e+06 M⁻¹
CCTTAAGCTTCCTCAACCACTTACCATACTCGAGATT (ssDNA) [F-37-mer],Ka,SSB protein [7],~2e+07 M⁻¹
